The values below come from the Human Domainome abundance scans (Beltran et al. 2025).

± gives the uncertainty stated by the source.

The chains are these.
B1: Histone-lysine N-methyltransferase SETD2, residues 2382 to 2430; numbered along this chain, Q9BYW2 (parent)
chain: SPPKPKTIVLPPNWKTARDPEGKIYYYHVITRQTQWDPPTWESPGDDAS

Variants of B1 are the subject of this series. The series can be described thus: abundance fitness (aPCA) (normalised: wild type 0, dead -1); higher = more abundant; growth selection in yeast, the domain comes from the species named. The conditions noted are these: Homo sapiens.
Take SPPKPKTIVLPPNWKTARDPEGKIYYYHVITRQKQWDPPTWESPGDDAS: the abundance fitness was -0.605 ± 0.29. In the case of SPPKPKTIVLPPNWKTARDPEGKIYYYHVITRQYQWDPPTWESPGDDAS it was -0.52 ± 0.16; in that of SPPKPKTIVLPPNWKTARDPEGKIYYYHVITRQRQWDPPTWESPGDDAS, 0.109 ± 0.045. As for SPPKPKTIVLPPNWKTARDPEGKIYYYHVITRQMQWDPPTWESPGDDAS, the abundance fitness amounted to 0.188 ± 0.077. Then SPPKPKTIVLPPNWKTARDPEGKIYYYHVITRQLQWDPPTWESPGDDAS, with -0.342 ± 0.047; and SPPKPKTIVLPPNWKTARDPEGKIYYYHVITRQVQWDPPTWESPGDDAS, with -0.075 ± 0.052. On to SPPKPKTIVLPPNWKTARDPEGKIYYYHVITRQIQWDPPTWESPGDDAS, for which the abundance fitness is -0.149 ± 0.079. In the case of SPPKPKTIVLPPNWKTARDPEGKIYYYHVITRQGQWDPPTWESPGDDAS it was -0.379 ± 0.039; in that of SPPKPKTIVLPPNWKTARDPEGKIYYYHVITRQQQWDPPTWESPGDDAS, -0.111 ± 0.042; in that of SPPKPKTIVLPPNWKTARDPEGKIYYYHVITRQWQWDPPTWESPGDDAS, -0.18 ± 0.036.

Turning to SPPKPKTIVLPPNWKTARDPEGKIYYYHVITRQFQWDPPTWESPGDDAS, the abundance fitness was -0.059 ± 0.061. As to SPPKPKTIVLPPNWKTARDPEGKIYYYHVITRQEQWDPPTWESPGDDAS, the abundance fitness was -0.394 ± 0.062. On to SPPKPKTIVLPPNWKTARDPEGKIYYYHVITRQHQWDPPTWESPGDDAS, for which the abundance fitness was -0.059 ± 0.064.

As to SPPKPKTIVLPPNWKTARDPEGKIYYYHVITRQNQWDPPTWESPGDDAS, the abundance fitness was -0.493 ± 0.22. As for SPPKPKTIVLPPNWKTARDPEGKIYYYHVITRQDQWDPPTWESPGDDAS, the abundance fitness was -0.774 ± 0.055. In the case of SPPKPKTIVLPPNWKTARDPEGKIYYYHVITRQPQWDPPTWESPGDDAS it was -0.29 ± 0.068. Then SPPKPKTIVLPPNWKTARDPEGKIYYYHVITRQTQWDPSTWESPGDDAS, with -0.719 ± 0.13; and SPPKPKTIVLPPNWKTARDPEGKIYYYHVITRQTQWDPQTWESPGDDAS, with -0.659 ± 0.044; and SPPKPKTIVLPPNWKTARDPEGKIYYYHVITRQTQWDPATWESPGDDAS, with -0.918 ± 0.11. Then SPPKPKTIVLPPNWKTARDPEGKIYYYHVITRQTQWDPTTWESPGDDAS, with -0.98 ± 0.24; and SPPKPKTIVLPPNWKTARDPEGKIYYYHVITRQTQWDPITWESPGDDAS, with -0.835 ± 0.22; and SPPKPKTIVLPPNWKTARDPEGKIYYYHVITRQTQWDPRTWESPGDDAS, with -0.96 ± 0.13. As for SPPKPKTIVLPPNWKTARDPEGKIYYYHVITRQTQWDPHTWESPGDDAS, the abundance fitness was -0.748 ± 0.27. Regarding SPPKPKTIVLPPNWKTARDPEGKIYYYHVITRQTQWDPWTWESPGDDAS, the abundance fitness is -0.987 ± 0.076. For SPPKPKTIVLPPNWKTARDPEGKIYYYHVITRQTQWDPGTWESPGDDAS, the abundance fitness is -1.04 ± 0.14. In the case of SPPKPKTIVLPPNWKTARDPEGKIYYYHVITRQTQWDPCTWESPGDDAS it was -0.812 ± 0.24.

For SPPKPKTIVLPPNWKTARDPEGKIYYYHVITRQTQWDPNTWESPGDDAS, the abundance fitness was -0.391 ± 0.23. In the case of SPPKPKTIVLPPNWKTARDPEGKIYYYHVITRQTQWDPVTWESPGDDAS it was -0.894 ± 0.059. In the case of SPPKPKTIVLPPNWKTARDPEGKIYYYHVITRQTQWDPETWESPGDDAS it was -1 ± 0.21; in that of SPPKPKTIVLPPNWKTARDPEGKIYYYHVITRQTQWDPLTWESPGDDAS, -0.892 ± 0.14; in that of SPPKPKTIVLPPNWKTARDPEGKIYYYHVITRQTQWDPMTWESPGDDAS, -0.908 ± 0.17. As for SPPKPKTIVLPPNWKTARDPEGKIYYYHVITRQTQYDPPTWESPGDDAS, the abundance fitness is 0.203 ± 0.042. In the case of SPPKPKTIVLPPNWKTARDPEGKIYYYHVITRQTQDDPPTWESPGDDAS it was -0.015 ± 0.032. In the case of SPPKPKTIVLPPNWKTARDPEGKIYYYHVITRQTQQDPPTWESPGDDAS it was -0.139 ± 0.048; in that of SPPKPKTIVLPPNWKTARDPEGKIYYYHVITRQTQADPPTWESPGDDAS, -0.239 ± 0.07.

SPPKPKTIVLPPNWKTARDPEGKIYYYHVITRQTQEDPPTWESPGDDAS: the abundance fitness was -0.027 ± 0.037. On to SPPKPKTIVLPPNWKTARDPEGKIYYYHVITRQTQHDPPTWESPGDDAS, for which the abundance fitness is 0.33 ± 0.079. SPPKPKTIVLPPNWKTARDPEGKIYYYHVITRQTQGDPPTWESPGDDAS: the abundance fitness was -0.152 ± 0.039. In the case of SPPKPKTIVLPPNWKTARDPEGKIYYYHVITRQTQSDPPTWESPGDDAS it was 0.171 ± 0.033. Then SPPKPKTIVLPPNWKTARDPEGKIYYYHVITRQTQRDPPTWESPGDDAS, with 0.139 ± 0.045; and SPPKPKTIVLPPNWKTARDPEGKIYYYHVITRQTQFDPPTWESPGDDAS, with 0.321 ± 0.062.

As to SPPKPKTIVLPPNWKTARDPEGKIYYYHVITRQTQCDPPTWESPGDDAS, the abundance fitness is -0.08 ± 0.045. Then SPPKPKTIVLPPNWKTARDPEGKIYYYHVITRQTQVDPPTWESPGDDAS, with 0.083 ± 0.042; and SPPKPKTIVLPPNWKTARDPEGKIYYYHVITRQTQKDPPTWESPGDDAS, with -0.006 ± 0.056. As for SPPKPKTIVLPPNWKTARDPEGKIYYYHVITRQTQIDPPTWESPGDDAS, the abundance fitness turned out to be 0.139 ± 0.064.

Turning to SPPKPKTIVLPPNWKTARDPEGKIYYYHVITRQTQLDPPTWESPGDDAS, the abundance fitness is -0.082 ± 0.032. In the case of SPPKPKTIVLPPNWKTARDPEGKIYYYHVITRQTQMDPPTWESPGDDAS it was -0.382 ± 0.11; in that of SPPKPKTIVLPPNWKTARDPEGKIYYYHVITRQTQTDPPTWESPGDDAS, -0.05 ± 0.046; in that of SPPKPKTIVLPPNWKTARDPEGKIYYYHVITRQTQWAPPTWESPGDDAS, -0.049 ± 0.036. Then SPPKPKTIVLPPNWKTARDPEGKIYYYHVITRQTQWMPPTWESPGDDAS, with -0.184 ± 0.054; and SPPKPKTIVLPPNWKTARDPEGKIYYYHVITRQTQWWPPTWESPGDDAS, with -0.255 ± 0.061; and SPPKPKTIVLPPNWKTARDPEGKIYYYHVITRQTQWVPPTWESPGDDAS, with 0.013 ± 0.045. As for SPPKPKTIVLPPNWKTARDPEGKIYYYHVITRQTQWFPPTWESPGDDAS, the abundance fitness was -0.68 ± 0.15.
